The values that follow come from US20230181729A1 (published 2023).

The chains are these.
B1: R16P1E8 (TCR, V domains shown)
Valpha: QKEVEQDPGPLSVPEGAIVSLNCTYSNSAFQYFMWYRQYSRKGPELLMYTYSSGNKEDGRFTAQVDKSSKYISLFIRDSQPSDSATYLCAMSEAAGNKLTFGGGTRVLVKP
Vbeta: EAGVAQSPRYKIIEKRQSVAFWCNPISGHATLYWYQQILGQGPKLLIQFQNNGVVDDSQLPKDRFSAERLKGVDSTLKIQPAKLEDSAVYLCASSYTNQGEAFFGQGTRLTVV
B2: R17P1D7 (TCR, V domains shown)
Valpha: AQTVTQSQPEMSVQEAETVTLSCTYDTSESDYYLFWYKQPPSRQMILVIRQEAYKQQNATENRFSVNFQKAAKSFSLKISDSQLGDAAMYFCAYRWAQGGSEKLVFGKGTKLTVNP
Vbeta: EADIYQTPRYLVIGTGKKITLECSQTMGHDKMYWYQQDPGMELHLIHYSYGVNSTEKGDLSSESTVSRIRTEHFPLTLESARPSHTSQYLCATELWSSGGTGELFFGEGSRLTVL
B3: R17P1A9 (TCR, V domains shown)
Valpha: QKEVEQNSGPLSVPEGAIASLNCTYSDRGSQSFFWYRQYSGKSPELIMSIYSNGDKEDGRFTAQLNKASQYVSLLIRDSQPSDSATYLCAVLNQAGTALIFGKGTTLSVSS
Vbeta: DSGVTQTPKHLITATGQRVTLRCSPRSGDLSVYWYQQSLDQGLQFLIQYYNGEERAKGNILERFSAQQFPDLHSELNLSSLELGDSALYFCASSAETGPWLGNEQFFGPGTRLTVL

The assay has as its target T1, PRAME (PRAME-004) peptide on HLA-A*02:01 (human).
T1 peptide: SLLQHLIGL
Kind of assay: cytokine release.
With B1, the binding result was “recognises”.

Consider B2, for which the binding result is reported as “recognises”.

Take B3: the binding result is on record as “recognises”.
